Test results taken from patent US20120214173A1, “Methods of Identifying Modulators of an Ehd Polypeptide” (priority 2007, published 2012).
Entries after “also recorded” stand apart in the source; their conditions may differ.

T1: EHD2 (Mus musculus, UniProt Q8BH64)
T1 construct: Mouse EHD2 full-length protein and all mutants were expressed as N-terminal His-fusions followed by a PreScission cleavage site; His (N, cleaved yes); made in house; host or cells: Escherichia coli BL21 DE3 Rosetta
T1 sequence (Q8BH64 1-543): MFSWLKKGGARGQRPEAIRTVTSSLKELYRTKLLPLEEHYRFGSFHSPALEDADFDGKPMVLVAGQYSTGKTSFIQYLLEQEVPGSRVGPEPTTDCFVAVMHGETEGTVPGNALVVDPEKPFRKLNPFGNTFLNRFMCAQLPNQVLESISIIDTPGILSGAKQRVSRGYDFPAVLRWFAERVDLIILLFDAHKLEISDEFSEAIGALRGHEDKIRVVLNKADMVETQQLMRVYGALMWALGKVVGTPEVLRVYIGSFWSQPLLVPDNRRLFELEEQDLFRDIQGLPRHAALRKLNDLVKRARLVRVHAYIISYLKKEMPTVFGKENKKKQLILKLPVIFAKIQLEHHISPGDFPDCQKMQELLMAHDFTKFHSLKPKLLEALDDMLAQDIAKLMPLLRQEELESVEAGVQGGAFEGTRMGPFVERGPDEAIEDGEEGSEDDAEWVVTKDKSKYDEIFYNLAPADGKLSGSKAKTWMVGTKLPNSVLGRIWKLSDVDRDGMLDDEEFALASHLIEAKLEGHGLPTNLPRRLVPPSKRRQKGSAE


Legend:
EHD2 = molecular target: T1, EHD2; experiment: Multiple turnover ATPase assay (nucleotide hydrolysis by HPLC) with or without Folch liposomes; format: biochemical; settings: presence or absence of Folch liposomes
Description: (§1) Amino acid numbering corresponds to mouse EHD2. b, EHD2 binds to adenine nucleotides, as determined by ITC. For clarity, ΔΔH=ΔHn−ΔH1 is plotted. […] Images were acquired close to the basal cell surface. f, Nucleotide hydrolysis was measured by HPLC in the absence (empty symbols) or presence of Folch liposomes (filled symbols). Data represent mean and standard deviation for two (intrinisic reactions) or three (stimulated reactions) independent experiments.
ITC measurements were performed at 10° C. in 20 mM HEPES (pH 7.5), 300 mM NaCl, 2 mM MgCl2. Liposome binding assays were performed as described previously (www.endocytosis.org). Multiple turnover ATPase assays were performed in 20 mM HEPES (pH 7.5), 135 mM NaCl, 15 mM KCl, 1 mM MgCl2 at 30° C. with 10 μM EHD2 (or mutants) as enzyme and 100 μM ATP as substrate, in the absence or presence of 1 mg/ml Folch liposomes (Sigma-Aldrich).
Reactions were started by the addition of the protein to the final reaction mix and nucleotide hydrolysis was followed using standard HPLC measurement^27. Initial rates were determined by applying a linear fit to data points up to 40% nucleotide hydrolysis. For electron microscopic studies, 2.5 μM EHD2 in 20 mM HEPES (pH 7.5), 150 mM NaCl, 1 mM MgCl2 was incubated for 15 min at 25° C. in the presence of 1 mM nucleotide and 0.05 mg/ml (final concentration) of the indicated liposomes. Samples were spotted on carbon-coated copper grids (Canemco and Marivac) and negatively stained with 2% uranyl acetate.
We next monitored the effect of membrane-binding on the ATPase activity of. EHD2 under multiple-turnover conditions (10-fold excess of ATP over EHD2), in the presence and absence of Folch liposoines (FIG. 1f). The intrinsic/background ATPase activity is extremely slow (kobs=0.7 h^−1) but is stimulated 8-fold in the presence of Folch or PS liposomes (kobs=5.6 h^−1).

HeLa cells = experiment: Over-expression of EGFP-tagged EHD2 and mutants in HeLa cells (confocal / live imaging); format: cell-based; settings: 24 h after transfection, fixed
Description: as §1
Nucleotide hydrolysis was measured as described in FIG. 1f. In vitro tubulation activity of PS liposomes was analysed as described in FIG. 1d. f, EGFP-tagged mutants were over-expressed in HeLa cells. […] For each construct, three independent experiments with ≈50 cells/experiments were analysed.
Ultracentrifugation. Sedimentation velocity experiments were performed in a Beckman Optima XLA ultracentrifuge, using an An-60Ti rotor. Centrifugation was at 50,000 rev×min and 5° C. at an EHD2 concentration of 15 μM, with scans as fast as possible (˜1.5 min intervals). The data were analysed using DCDT+ v.2^44,45, with the partial specific volume for the protein (from the amino acid composition) and solvent density and viscosity calculated using Sednterp^46. Selected scans (at equal, ˜15 min intervals), and of g(s20,w) (the amount of material sedimenting between s20,w and (s20,w+δs)) and also the residuals for fitting the data with DCDT+, were plotted with the program profit v.5.6.7 (Quantum soft, Switzerland). Cell biology. N-terminal EGFP-tagged EHD2 and all mutants were over-expressed in HeLa cells from the pEGFP-C3 vector (Clontech). HeLa cells were grown as per ECACC guidelines with 10% fetal bovine serum and transfected using Genejuice (Novagen) for transient protein expression. 24 h after transfection, cells were fixed for 10 min at 37° C. in 3% paraformaldehyde and mounted. All confocal images were taken sequentially using a BioRad Radiance system and LaserSharp software (Biorad). For real-time microscopy, transfected cells on glass-bottom Petri dishes (WillCo Wells BV, Amsterdam) were washed with 25 mM HEPES (pH 7.5), 125 mM NaCl, 5 mM KCl, 10 mM D-glucose, 1 mM MgCl2, 2 mM CaCl), and epifluorescence images were taken using an Olympus IX70 microscope (Southhall, UK) and Argon laser (Melles Griot, Carlsbad, Calif.) with a Princeton instruments (Trenton, N.J.) cooled I-PentaMAX camera with MetaMorph software (Universal imaging).
EHD2 wild-type was over-expressed in HeLa cells for 24 h and imaged by EPI-fluorescence for approximately 30 min.
EHD2 T94A was over-expressed in HeLa cells for 24 h and imaged by EPI-fluorescence for approximately 30 min. […] EHD2 I157Q was over-expressed in HeLa cells for 24 h and imaged by EPI-fluorescence for approximately 30 min.

Row | Molecule | assembly-stimulated ATP hydrolysis (Q8BH64) | distribution of EGFP-tagged protein over-expressed in HeLa cells (HeLa cells) | other results
1 | Nc1nc2c(ncn2[C@@H]2O[C@H](COP(=O)(O)OP(=O)(O)OP(=O)(O)O)[C@@H](O)[C@H]2O)c(=O)[nH]1 [GTP, reference compound] |  |  | GTP hydrolysis by EHD2 (in words) (EHD2): not stimulated; also recorded: not hydrolysed
2 | EHD2 E91Q (protein) MFSWLKKGGARGQRPEAIRTVTSSLKELYRTKLLPLEEHYRFGSFHSPALEDADFDGKPMVLVAGQYSTGKTSFIQYLLEQEVPGSRVGPQPTTDCFVAVMHGETEGTVPGNALVVDPEKPFRKLNPFGNTFLNRFMCAQLPNQVLESISIIDTPGILSGAKQRVSRGYDFPAVLRWFAERVDLIILLFDAHKLEISDEFSEAIGALRGHEDKIRVVLNKADMVETQQLMRVYGALMWALGKVVGTPEVLRVYIGSFWSQPLLVPDNRRLFELEEQDLFRDIQGLPRHAALRKLNDLVKRARLVRVHAYIISYLKKEMPTVFGKENKKKQLILKLPVIFAKIQLEHHISPGDFPDCQKMQELLMAHDFTKFHSLKPKLLEALDDMLAQDIAKLMPLLRQEELESVEAGVQGGAFEGTRMGPFVERGPDEAIEDGEEGSEDDAEWVVTKDKSKYDEIFYNLAPADGKLSGSKAKTWMVGTKLPNSVLGRIWKLSDVDRDGMLDDEEFALASHLIEAKLEGHGLPTNLPRRLVPPSKRRQKGSAE | all mutants showed reduced or completely abolished assembly-stimulated ATP hydrolysis |  | 
3 | EHD2 K193D (protein) MFSWLKKGGARGQRPEAIRTVTSSLKELYRTKLLPLEEHYRFGSFHSPALEDADFDGKPMVLVAGQYSTGKTSFIQYLLEQEVPGSRVGPEPTTDCFVAVMHGETEGTVPGNALVVDPEKPFRKLNPFGNTFLNRFMCAQLPNQVLESISIIDTPGILSGAKQRVSRGYDFPAVLRWFAERVDLIILLFDAHDLEISDEFSEAIGALRGHEDKIRVVLNKADMVETQQLMRVYGALMWALGKVVGTPEVLRVYIGSFWSQPLLVPDNRRLFELEEQDLFRDIQGLPRHAALRKLNDLVKRARLVRVHAYIISYLKKEMPTVFGKENKKKQLILKLPVIFAKIQLEHHISPGDFPDCQKMQELLMAHDFTKFHSLKPKLLEALDDMLAQDIAKLMPLLRQEELESVEAGVQGGAFEGTRMGPFVERGPDEAIEDGEEGSEDDAEWVVTKDKSKYDEIFYNLAPADGKLSGSKAKTWMVGTKLPNSVLGRIWKLSDVDRDGMLDDEEFALASHLIEAKLEGHGLPTNLPRRLVPPSKRRQKGSAE | all mutants showed reduced or completely abolished assembly-stimulated ATP hydrolysis |  | 
4 | K327D: EHD2 polybasic cluster mutant (protein, UniProt Q8BH64 1-543, looked up, variant K327D) EH domain-containing protein 2: MFSWLKKGGARGQRPEAIRTVTSSLKELYRTKLLPLEEHYRFGSFHSPALEDADFDGKPMVLVAGQYSTGKTSFIQYLLEQEVPGSRVGPEPTTDCFVAVMHGETEGTVPGNALVVDPEKPFRKLNPFGNTFLNRFMCAQLPNQVLESISIIDTPGILSGAKQRVSRGYDFPAVLRWFAERVDLIILLFDAHKLEISDEFSEAIGALRGHEDKIRVVLNKADMVETQQLMRVYGALMWALGKVVGTPEVLRVYIGSFWSQPLLVPDNRRLFELEEQDLFRDIQGLPRHAALRKLNDLVKRARLVRVHAYIISYLKKEMPTVFGKENDKKQLILKLPVIFAKIQLEHHISPGDFPDCQKMQELLMAHDFTKFHSLKPKLLEALDDMLAQDIAKLMPLLRQEELESVEAGVQGGAFEGTRMGPFVERGPDEAIEDGEEGSEDDAEWVVTKDKSKYDEIFYNLAPADGKLSGSKAKTWMVGTKLPNSVLGRIWKLSDVDRDGMLDDEEFALASHLIEAKLEGHGLPTNLPRRLVPPSKRRQKGSAE |  | completely cytoplasmic distribution | 
5 | K329D: EHD2 polybasic cluster mutant (protein, UniProt Q8BH64 1-543, looked up, variant K329D) EH domain-containing protein 2: MFSWLKKGGARGQRPEAIRTVTSSLKELYRTKLLPLEEHYRFGSFHSPALEDADFDGKPMVLVAGQYSTGKTSFIQYLLEQEVPGSRVGPEPTTDCFVAVMHGETEGTVPGNALVVDPEKPFRKLNPFGNTFLNRFMCAQLPNQVLESISIIDTPGILSGAKQRVSRGYDFPAVLRWFAERVDLIILLFDAHKLEISDEFSEAIGALRGHEDKIRVVLNKADMVETQQLMRVYGALMWALGKVVGTPEVLRVYIGSFWSQPLLVPDNRRLFELEEQDLFRDIQGLPRHAALRKLNDLVKRARLVRVHAYIISYLKKEMPTVFGKENKKDQLILKLPVIFAKIQLEHHISPGDFPDCQKMQELLMAHDFTKFHSLKPKLLEALDDMLAQDIAKLMPLLRQEELESVEAGVQGGAFEGTRMGPFVERGPDEAIEDGEEGSEDDAEWVVTKDKSKYDEIFYNLAPADGKLSGSKAKTWMVGTKLPNSVLGRIWKLSDVDRDGMLDDEEFALASHLIEAKLEGHGLPTNLPRRLVPPSKRRQKGSAE |  | completely cytoplasmic distribution | 
6 | K324D: EHD2 polybasic cluster mutant (protein, UniProt Q8BH64 1-543, looked up, variant K324D) EH domain-containing protein 2: MFSWLKKGGARGQRPEAIRTVTSSLKELYRTKLLPLEEHYRFGSFHSPALEDADFDGKPMVLVAGQYSTGKTSFIQYLLEQEVPGSRVGPEPTTDCFVAVMHGETEGTVPGNALVVDPEKPFRKLNPFGNTFLNRFMCAQLPNQVLESISIIDTPGILSGAKQRVSRGYDFPAVLRWFAERVDLIILLFDAHKLEISDEFSEAIGALRGHEDKIRVVLNKADMVETQQLMRVYGALMWALGKVVGTPEVLRVYIGSFWSQPLLVPDNRRLFELEEQDLFRDIQGLPRHAALRKLNDLVKRARLVRVHAYIISYLKKEMPTVFGDENKKKQLILKLPVIFAKIQLEHHISPGDFPDCQKMQELLMAHDFTKFHSLKPKLLEALDDMLAQDIAKLMPLLRQEELESVEAGVQGGAFEGTRMGPFVERGPDEAIEDGEEGSEDDAEWVVTKDKSKYDEIFYNLAPADGKLSGSKAKTWMVGTKLPNSVLGRIWKLSDVDRDGMLDDEEFALASHLIEAKLEGHGLPTNLPRRLVPPSKRRQKGSAE |  | completely cytoplasmic distribution | 
